From patent US20120141456A1 (Biogen, published 2012) come the findings set out here.

For experiment [1], the target named is T1, full-length human DR6 on transfected cells (human, UniProt O75509 42-655).
T1 construct: also called Death Receptor-6; TNFRSF21
T1 sequence: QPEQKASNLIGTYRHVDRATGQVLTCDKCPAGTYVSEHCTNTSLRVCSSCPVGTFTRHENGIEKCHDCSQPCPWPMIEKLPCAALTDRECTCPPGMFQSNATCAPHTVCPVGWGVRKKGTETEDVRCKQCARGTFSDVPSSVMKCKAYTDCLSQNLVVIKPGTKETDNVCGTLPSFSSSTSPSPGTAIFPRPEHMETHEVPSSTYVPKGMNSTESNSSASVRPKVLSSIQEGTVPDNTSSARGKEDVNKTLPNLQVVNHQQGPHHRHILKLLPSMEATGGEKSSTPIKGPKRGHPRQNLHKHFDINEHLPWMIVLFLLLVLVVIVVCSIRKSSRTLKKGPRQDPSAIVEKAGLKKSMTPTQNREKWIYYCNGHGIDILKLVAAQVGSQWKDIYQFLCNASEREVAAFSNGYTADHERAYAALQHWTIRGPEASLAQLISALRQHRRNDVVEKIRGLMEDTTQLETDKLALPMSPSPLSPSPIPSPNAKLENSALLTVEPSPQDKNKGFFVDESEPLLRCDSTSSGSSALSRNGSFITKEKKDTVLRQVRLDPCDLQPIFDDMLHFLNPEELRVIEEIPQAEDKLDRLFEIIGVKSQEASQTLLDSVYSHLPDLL
Kind of experiment: FACS on 293E cells transfected with full-length human DR6.

The target in experiment [2] is T1, full-length human DR6 on transfected …. The experiment is described as follows: FACS on 293T cells transfected with human DR6 (FIG. 13B). On the procedure: (§1) Six million HEK293 cells were transfected with 10 ug of plasmid DNA, which encoded full length human, rat, or mouse DR6. Three days after transfection, approximately 50,000 cells in 200 μL of PBS, 1% BSA, 0.1% NaN3 (FACS buffer) were analyzed. Cells were pelleted and resuspended in 150 μl of serial dilutions of anti-DR6 antibodies in FACS buffer. Samples were incubated for 1 hour on ice with occasional agitation and then washed three times. Bound DR6 antibody was visualized with PE-labeled goat F(ab)₂ anti-human Fab (for Dyax Fabs) or anti-mouse IgG specific antibody (for monoclonal antibodies) (Jackson Labs).

In experiment [3] the target is T2, full-length mouse DR6 on transfected cells (mouse, UniProt Q9EPU5 42-655).
T2 sequence: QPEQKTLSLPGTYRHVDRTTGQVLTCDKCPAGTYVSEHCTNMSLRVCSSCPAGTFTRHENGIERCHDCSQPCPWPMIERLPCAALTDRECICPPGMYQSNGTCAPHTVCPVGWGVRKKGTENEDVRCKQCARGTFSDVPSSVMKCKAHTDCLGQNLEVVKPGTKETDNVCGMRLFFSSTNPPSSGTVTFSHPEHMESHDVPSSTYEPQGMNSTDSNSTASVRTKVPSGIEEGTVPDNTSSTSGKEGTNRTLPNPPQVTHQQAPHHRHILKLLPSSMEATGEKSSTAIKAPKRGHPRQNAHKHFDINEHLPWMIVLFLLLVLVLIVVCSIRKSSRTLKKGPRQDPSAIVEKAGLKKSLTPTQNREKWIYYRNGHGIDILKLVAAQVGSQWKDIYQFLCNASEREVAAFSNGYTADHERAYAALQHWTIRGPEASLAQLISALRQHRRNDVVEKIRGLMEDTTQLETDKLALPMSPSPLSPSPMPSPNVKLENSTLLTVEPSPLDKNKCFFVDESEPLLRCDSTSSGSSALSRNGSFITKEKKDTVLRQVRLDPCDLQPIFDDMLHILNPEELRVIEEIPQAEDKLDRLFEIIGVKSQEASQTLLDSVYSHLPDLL
Kind of experiment: FACS on 293T cells transfected with mouse DR6 (FIG. 13C). On the procedure: as §1

The target of experiment [4] is T3, full-length rat DR6 on transfected cells (rat, UniProt D3ZF92 42-655).
T3 construct: whole, on cells
T3 sequence (looked up): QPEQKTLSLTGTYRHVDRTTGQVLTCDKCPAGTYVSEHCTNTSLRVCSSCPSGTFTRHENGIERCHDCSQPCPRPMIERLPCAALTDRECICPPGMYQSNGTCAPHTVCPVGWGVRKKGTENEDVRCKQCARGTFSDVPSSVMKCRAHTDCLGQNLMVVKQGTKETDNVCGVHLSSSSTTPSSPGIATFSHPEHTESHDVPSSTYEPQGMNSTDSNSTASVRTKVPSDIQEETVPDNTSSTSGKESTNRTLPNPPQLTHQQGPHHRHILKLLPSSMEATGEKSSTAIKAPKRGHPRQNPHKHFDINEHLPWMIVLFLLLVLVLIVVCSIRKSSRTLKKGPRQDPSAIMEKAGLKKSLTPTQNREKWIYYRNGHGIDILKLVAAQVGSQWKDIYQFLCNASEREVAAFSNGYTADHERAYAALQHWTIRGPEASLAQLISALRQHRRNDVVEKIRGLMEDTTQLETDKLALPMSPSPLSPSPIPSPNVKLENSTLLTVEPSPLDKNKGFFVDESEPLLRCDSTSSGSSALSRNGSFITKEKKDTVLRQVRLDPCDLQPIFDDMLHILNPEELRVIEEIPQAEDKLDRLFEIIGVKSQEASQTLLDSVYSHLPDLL
The experiment is described as follows: FACS on 293T cells transfected with rat DR6 (FIG. 13A). On the procedure: as §1

The target in experiment [5] is T3, full-length rat DR6 on transfected cells. The experiment is described as follows: FACS on HEK293 cells transfected with full length rat DR6, serial dilutions of antibody. On the procedure:
as §1

The target of experiment [6] is T1, full-length human DR6 on transfected …. The experiment is described as follows: FACS on HEK293 cells transfected with full length human DR6, serial dilutions of antibody. The procedure: as §1
Experiment [7] deals with T2, full-length mouse DR6 on transfected …. Kind of experiment: FACS on HEK293 cells transfected with full length mouse DR6, serial dilutions of antibody. On the procedure: as §1

B1: M63-E10 (Fab, V domains shown)
VH: EVQLLESGGGLVQPGGSLRLSCAASGFTFSQYKMSWVRQAPGKGLEWVSSISSSGGTNYADSVKGRFTISRDNSKNTLYLQMNSLRAEDTAMYYCARRNYGDRPYWYFDLWGRGTLVTVSS
VL: DIQMTQSPSTLSASVGDRVTITCRASQTISRWLAWYQHKPGKAPKLLIYKTSNLESGVPSRFSGSGSGTEFTLTISSLQPDDFATYYCQQYKSYSITFGPGTKVDIK
notes: Human Fab from a phage display library
In the case of B1, the binding result in experiment [1] is listed as “binds”.

B2: M53-F04 (Fab, V domains shown)
VH: EVQLLESGGGLVQPGGSLRLSCAASGFTFSEYTMHWVRQAPGKGLEWVSVISSSGGRTVYADSVKGRFTISRDNSKNTLYLQMNSLRAEDTAVYYCARDLSNYMDYWGQGTLVTVSS
VL: DIQMTQSPATLSLSPGERATLSCRASQTVSNYLAWYQQKPGQAPRLLIYDASNRATGIPARFSGSGSGTDFTLTISSLEPEDFAVYYCQQRSKWLSFGGGTKVEIK
notes: as for B1
In the case of B2, in experiment [1], the binding result is “binds”.

B3: M50-H01 (Fab, V domains shown)
VH: EVQLLESGGGLVQPGGSLRLSCAASGFTFSDYPMMWVRQAPGKGLEWVSRISPSGGHTIYADSVKGRFTISRDNSKNTLYLQMNSLRAEDTAVYYCAKDWHGGGAFDIWGQGTMVTVSS
VL: DIQMTQSPSSVSASVGDRVTITCRASQGIRSWLAWYQQKPGKAPKLLIYDASTLQSGVPSRFRGGGSGTDFTLTISSLQPEDFATYYCQQSYSTPLTFGGGTKVEIK
notes: as for B1
B3: the binding result in experiment [1] is reported as “binds”.

B4: M66-B03 (Fab, V domains shown)
VH: EVQLLESGGGLVQPGGSLRLSCAASGFTFSPYWMSWVRQAPGKGLEWVSVIYPSGGHTYYADSVKGRFTISRDNSKNTLYLQMNSLRAEDTAVYYCARPGFGAAFDYWGPGTLVTVSS
VL: DIQMTQSPSSVSASVGDRVTITCRASQGISSWLAWYQQKPGKAPKLLIYAASSLQSGVPSRFSGSGSGTDFTLTISSLQPEDFATYYCQQANSFPLTFGGGTKVEIK
For B4, in experiment [1], the binding result is “binds”.

B5: 1P2F2.1 (antibody, V domains shown)
VH: QVQLQQSGPEVARPGASVKLSCKASGYTFTDYYLNWVKQRTGQGLEWIGEIYPGNNHTYYNEKFKGKATLTADNSSSTAYLQFSSLTSEDSAVYFCTRGVIKWGQGTLVTVSV
VL: DILMTQSPSSMSVSLGDTVSITCHASQGIRNSIGWLQQKPGKSFKGLIYHATTLEDGVPSRFTGSGSGADFSLTISSLESEDFADYYCVQYAQFPYTFGGGTKLEIK
notes: Murine hybridoma monoclonal antibody; subgroup II(A) heavy chain, subgroup V kappa light chain
Consider B5, for which the binding result in experiment [2], in experiment [3] and in experiment [4] was “binds” in each case.

B6: M53-E04 (Fab, V domains shown)
VH: EVQLLESGGGLVQPGGSLRLSCAASGFTFSNYEMSWVRQAPGKGLEWVSSIYSSGGETLYADSVKGRFTISRDNSKNTLYLQMNSLRAEDTAVYYCARDGAADYWGQGTLVTVSS
VL: QSELTQPPSASGTPGQWVTISCSGSTSNIGNNYVYWYQQLPGTAPKLLIYTNNQRPSGVPDRFSGSKSGTSASLAISGLRSEDEADYYCATWDDSLYAPVFGGGTKVTVL
notes: as for B1
With B6, in experiment [1], the binding result is “binds”.

B7: M73-C04 (Fab, V domains shown)
VH: EVQLLESGGGLVQPGGSLRLSCAASGFTFSPYAMVWVRQAPGKGLEWVSSISPSGGGTGYADSVKGRFTISRDNSKNTLYLQMNSLRAEDTAVYYCAREGWNYYYGMDVWGQGTTVTVSS
VL: DIQMTQSPATLSLSPGERATLSCRASQSVSSYLAWYQQKPGQAPRLLIYDASNRATGIPARFSGSGSGTDFTLAISSLQPEDSATYYCLQDFIYPYTFGQGTKLEIR
notes: as for B1
As for B7, the binding result in experiment [1] was “binds”.

B8: M51-H09 (Fab, V domains shown)
VH: EVQLLESGGGLVQPGGSLRLSCAASGFTFSPYSMTWVRQAPGKGLEWVSSIVPSGGKTWYADSVKGRFTISRDNSKNTLYLQMNSLRAEDTAVYYCARTNLSYFDYWGQGTLVTVSS
VL: QSELTQPPSASGSPGQSVTISCTGTSNDVGSYNYISWFQQHPGKAPKLMIYEVNKRPSGVPDRFSGSKSDNTASLTVSGLQAEDEADYYCTSYAGSHKWVFGGGTKLTVL
notes: as for B1
As to B8, the binding result in experiment [1] is “binds”.

B9: M67-G02 (Fab, V domains shown)
VH: EVQLLESGGGLVQPGGSLRLSCAASGFTFSRYSMQWVRQAPGKGLEWVSVISPSGGSTMYADSVKGRFTISRDNSKNTLYLQMNSLRAEDTAVYYCARESYSSSWYSGYYYYYGMDVWGQGTTVTVSS
VL: DIQMTQSPASLSASVGDRVTITCRASQTIAGYLNWYQQTPGKAPNLLIYDASRLQSGVPSRFSGSGSGTDFTLSISGLQPEDFGTYYCQQSYTIPLTFGGGTKVEIK
notes: as for B1
Consider B9, for which the binding result in experiment [1] is listed as “binds”.

B10: 1P5D10.2 (antibody, V domains shown)
VH: EVQLVESGGGLVKPGGSLKLSCAASGFTFSDYYMYWVRQTPEKRLEWVATISDGGLYTYYQDSVKGRFTISRDNAKNNLYLQMSSLKSEDTAMYYCAREDDYDGDFYTMDYWGQGTSVTVSS
VL: QIVLTQSPAIMSASPGEKVTITCSASSSVSYMHWFQQKPGTSPKLWIYSTSNLASGVPARFSGSGSGTSYSLTISRMEAEDAATYYCQQRSSYPLTFGAGTKLELK
notes: Murine hybridoma monoclonal antibody; subgroup III(D) heavy chain, subgroup VI kappa light chain
B10: the binding result in experiment [5], in experiment [6] and in experiment [7] was “binds” in each case.

B11: M62-B02 (Fab, V domains shown)
VH: EVQLLESGGGLVQPGGSLRLSCAASGFTFSMYIMNWVRQAPGKGLEWVSSIVSSGGWTFYADSVKGRFTISRDNSKNTLYLQMNSLRAEDTAVYYCARGHYGMDVWGQGTTVTVSS
VL: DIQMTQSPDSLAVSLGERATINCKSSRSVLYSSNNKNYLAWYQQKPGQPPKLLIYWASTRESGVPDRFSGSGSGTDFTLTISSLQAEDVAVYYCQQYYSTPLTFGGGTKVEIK
notes: as for B1
For the molecule B11, the binding result in experiment [1] is listed as “binds”.

B12: M72-F03 (Fab, V domains shown)
VH: EVQLLESGGGLVQPGGSLRLSCAASGFTFSQYMMSWVRQAPGKGLEWVSVIYPSGGSTHYADSVKGRFTISRDNSKNTLYLQMNSLRAEDTAVYYCARGHYGMDVWGQGTTVTVSS
VL: DIQMTQSPDSLAVSLGERATINCKSSQSVLYSSNNKNYLAWYQHKAGQPPKLLIHWASSRASGVPDRFSGSGSGTDFTLTISSLQAEDVAVYYCQQFYSLPLTFGGGTKVEIR
notes: as for B1
As to B12, the binding result in experiment [1] is listed as “binds”.
